Measured values as given in paper PMC3137072.

Target: microtubules (polymerized tubulin) (UniProt Q6B856)
Sequence (Q6B856 whole entry, looked up): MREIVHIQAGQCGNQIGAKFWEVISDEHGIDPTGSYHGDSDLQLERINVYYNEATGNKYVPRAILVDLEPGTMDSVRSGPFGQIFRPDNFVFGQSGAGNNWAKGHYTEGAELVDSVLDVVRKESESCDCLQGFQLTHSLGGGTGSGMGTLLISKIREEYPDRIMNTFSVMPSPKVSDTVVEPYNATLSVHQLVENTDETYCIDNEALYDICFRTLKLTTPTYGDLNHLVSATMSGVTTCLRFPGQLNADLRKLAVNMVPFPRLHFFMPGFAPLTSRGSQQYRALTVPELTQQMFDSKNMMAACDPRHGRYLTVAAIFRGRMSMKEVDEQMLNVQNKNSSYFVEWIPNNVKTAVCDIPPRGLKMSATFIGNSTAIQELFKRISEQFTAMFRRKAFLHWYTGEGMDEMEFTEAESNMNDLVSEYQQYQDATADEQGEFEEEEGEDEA

B1: GAS2-like 3 (G2L3), full length, GFP-tagged (natural protein)
chain: MQPAIQVWFGEDLPLSPRSPLTPRHGPGLANVCQYDEWIAVRHEATLLPMQEDLSIWLSGLLGIKVKAEKLLEELDNGVLLCQLIDVLQNMVKTCNSEESGNFPMRKVPCKKDAASGSFFARDNTANFLHWCRDIGVDETYLFESEGLVLHKDPRQVYLCLLEIGRIVSRYGVEPPVLVKLEKEIELEETLLNTSGPEDSISIPKSCCRHEELHEAVKHIAEDPPCSCSHRFSIEYLSEGRYRLGDKILFIRMLHGKHVMVRVGGGWDTLQGFLLKYDPCRILQFATLEQKILAFQKGVSNESVPDSPARTPQPPEMNPLSAVNMFQKQNSKPSVPVSIPKSKEKQGRPPGALVPASSLKGGNLGSMSVRSKLPNSPAASSHPKLKSSKGITKKPQAPSNNASSSLASLNPVGKNTSSPALPRTAPCISESPRKCISSPNTPKAKVIPAQNSADLPESTLLPNKCSGKTQPKYLKHNHISSRDNAVSHLAAHSNSSSKCPKLPKANIPVRPKPSFQSSAKMTKTSSKTIATGLGTQSQPSDGAPQAKPVPAQKLKSALNLNQPVSVSSVSPVKATQKSKDKNIVSATKKQPQNKSAFQKTGPSSLKSPGRTPLSIVSLPQSSTKTQTAPKSAQTVAKSQHSTKGPPRSGKTPASIRKPPSSVKDADSGDKKPTAKKKEDDDHYFVMTGSKKPRK
**Q.** With B1 as the binder, how does the FRAP, t½ of recovery of GFP-tagged full-length G2L3 on MTs in NIH3T3 cells read?
**A.** Its FRAP, t½ of recovery of GFP-tagged full-length G2L3 on MTs in NIH3T3 cells is 14.9 s.
